Test results taken from patent US20260265410A1 (UNIVERSITY OF FLORIDA RESEARCH FOUNDATION, published 2026).
Positions count from the first letter of the chain named. Blank lines part the entries; values can stand above or below the binder they belong to.

Legend:
[1] = target: T1, human CD105-ECD: amino acid residues Met 1-Gly 586 of human CD105 (Sino bio: Cat: 10149-H02H) (human, UniProt P17813 26-586); assay: ELISA, absorbance at 405 nm, one condition per Fab and antigen
T1 construct: Bought; also called hCD105-ECD-hFc; hCD105-hFc
T1 sequence: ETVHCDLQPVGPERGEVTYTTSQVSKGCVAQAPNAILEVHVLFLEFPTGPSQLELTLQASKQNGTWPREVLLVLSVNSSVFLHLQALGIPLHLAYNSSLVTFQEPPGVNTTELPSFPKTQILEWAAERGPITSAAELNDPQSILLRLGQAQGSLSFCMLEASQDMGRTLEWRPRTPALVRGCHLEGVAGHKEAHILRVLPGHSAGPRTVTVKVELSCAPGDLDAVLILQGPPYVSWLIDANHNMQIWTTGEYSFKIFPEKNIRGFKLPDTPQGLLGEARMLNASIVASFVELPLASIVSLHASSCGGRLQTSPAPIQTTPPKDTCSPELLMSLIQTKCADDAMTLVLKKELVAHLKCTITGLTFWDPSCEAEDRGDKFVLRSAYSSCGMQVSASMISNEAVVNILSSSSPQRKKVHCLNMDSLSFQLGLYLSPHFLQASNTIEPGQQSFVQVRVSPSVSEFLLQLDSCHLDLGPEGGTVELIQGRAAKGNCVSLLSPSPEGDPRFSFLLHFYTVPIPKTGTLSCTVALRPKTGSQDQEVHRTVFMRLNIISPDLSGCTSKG

[2] = target: T2, human Nectin-2 extracellular domain (amino acid residues 1-360 of human Nectin-2) fused to hFc (human, UniProt Q92692 32-360); assay: as above
T2 construct: Bought; also called hNectin-2-ECD-hFc; NECTIN2-ECD-hFc; not shown: human Fc (hFc)
T2 sequence: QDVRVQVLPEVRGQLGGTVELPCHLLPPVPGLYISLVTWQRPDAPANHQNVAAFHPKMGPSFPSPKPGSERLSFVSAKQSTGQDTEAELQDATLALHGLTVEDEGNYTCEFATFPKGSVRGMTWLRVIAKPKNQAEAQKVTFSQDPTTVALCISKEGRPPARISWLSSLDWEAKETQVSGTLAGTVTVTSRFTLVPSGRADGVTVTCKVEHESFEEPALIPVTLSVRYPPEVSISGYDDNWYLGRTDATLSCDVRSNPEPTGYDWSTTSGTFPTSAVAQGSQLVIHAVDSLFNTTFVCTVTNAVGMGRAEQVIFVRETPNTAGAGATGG

[3] = target: T3, C-terminal domain (CTD) of human PTPRG (amino acid residues 349~736 of human PTPRG) (human, UniProt P23470 349-736); assay: ELISA, one condition per Fab and antigen; y axis 0 to 1.8 without name or unit
T3 construct: also called hPTPRG-CTD; human PTPRG carboxyl domain
T3 sequence: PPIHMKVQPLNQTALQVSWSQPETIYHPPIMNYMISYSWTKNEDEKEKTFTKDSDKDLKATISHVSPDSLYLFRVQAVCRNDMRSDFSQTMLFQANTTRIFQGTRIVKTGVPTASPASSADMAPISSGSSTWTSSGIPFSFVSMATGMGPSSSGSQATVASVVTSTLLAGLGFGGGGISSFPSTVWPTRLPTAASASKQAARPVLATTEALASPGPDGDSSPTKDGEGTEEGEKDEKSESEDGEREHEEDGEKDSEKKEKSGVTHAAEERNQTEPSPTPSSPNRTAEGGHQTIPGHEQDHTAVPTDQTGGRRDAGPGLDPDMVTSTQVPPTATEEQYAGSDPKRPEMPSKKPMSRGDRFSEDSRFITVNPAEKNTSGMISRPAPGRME

[4] = target: T4, mouse PTPRG ECD (amino acid residues 20-733 of mouse PTPRG) fused to hFc (mouse, UniProt Q05909 20-733); assay: as above
T4 construct: Produced in-house; also called mPTPRG-ECD; Mouse PTPRG-ECD-hFc; not shown: human Fc (hFc)
T4 sequence: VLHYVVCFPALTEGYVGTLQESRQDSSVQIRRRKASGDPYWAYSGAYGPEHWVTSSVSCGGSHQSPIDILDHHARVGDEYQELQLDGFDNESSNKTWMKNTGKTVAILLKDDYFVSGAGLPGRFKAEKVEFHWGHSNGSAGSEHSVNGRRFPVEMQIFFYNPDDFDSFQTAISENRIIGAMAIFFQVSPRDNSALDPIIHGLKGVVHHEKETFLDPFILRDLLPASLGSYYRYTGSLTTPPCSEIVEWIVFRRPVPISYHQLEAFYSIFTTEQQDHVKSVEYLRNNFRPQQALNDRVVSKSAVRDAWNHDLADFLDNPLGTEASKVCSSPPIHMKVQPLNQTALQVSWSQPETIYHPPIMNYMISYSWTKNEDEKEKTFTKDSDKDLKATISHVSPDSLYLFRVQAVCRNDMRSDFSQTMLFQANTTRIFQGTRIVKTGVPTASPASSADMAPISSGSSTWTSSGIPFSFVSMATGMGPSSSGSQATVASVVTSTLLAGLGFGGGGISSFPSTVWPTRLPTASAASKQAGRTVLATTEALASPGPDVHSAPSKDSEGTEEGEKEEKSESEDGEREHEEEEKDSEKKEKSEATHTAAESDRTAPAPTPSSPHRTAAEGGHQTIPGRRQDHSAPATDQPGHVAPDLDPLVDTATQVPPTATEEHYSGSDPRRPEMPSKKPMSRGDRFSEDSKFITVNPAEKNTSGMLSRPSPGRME

[5] = target: T5, human PTPRG on the cell surface (U937 cells, HEL cells) (human, UniProt P23470 20-1445); assay: flow cytometry on whole HEL cells, screen of the 28 clones (Ctrl row = 0); PTPRG is named as the antigen on HEL cells only in the later examples
T5 construct: Endogenous PTPRG of human AML cell lines
T5 sequence (P23470 20-1445): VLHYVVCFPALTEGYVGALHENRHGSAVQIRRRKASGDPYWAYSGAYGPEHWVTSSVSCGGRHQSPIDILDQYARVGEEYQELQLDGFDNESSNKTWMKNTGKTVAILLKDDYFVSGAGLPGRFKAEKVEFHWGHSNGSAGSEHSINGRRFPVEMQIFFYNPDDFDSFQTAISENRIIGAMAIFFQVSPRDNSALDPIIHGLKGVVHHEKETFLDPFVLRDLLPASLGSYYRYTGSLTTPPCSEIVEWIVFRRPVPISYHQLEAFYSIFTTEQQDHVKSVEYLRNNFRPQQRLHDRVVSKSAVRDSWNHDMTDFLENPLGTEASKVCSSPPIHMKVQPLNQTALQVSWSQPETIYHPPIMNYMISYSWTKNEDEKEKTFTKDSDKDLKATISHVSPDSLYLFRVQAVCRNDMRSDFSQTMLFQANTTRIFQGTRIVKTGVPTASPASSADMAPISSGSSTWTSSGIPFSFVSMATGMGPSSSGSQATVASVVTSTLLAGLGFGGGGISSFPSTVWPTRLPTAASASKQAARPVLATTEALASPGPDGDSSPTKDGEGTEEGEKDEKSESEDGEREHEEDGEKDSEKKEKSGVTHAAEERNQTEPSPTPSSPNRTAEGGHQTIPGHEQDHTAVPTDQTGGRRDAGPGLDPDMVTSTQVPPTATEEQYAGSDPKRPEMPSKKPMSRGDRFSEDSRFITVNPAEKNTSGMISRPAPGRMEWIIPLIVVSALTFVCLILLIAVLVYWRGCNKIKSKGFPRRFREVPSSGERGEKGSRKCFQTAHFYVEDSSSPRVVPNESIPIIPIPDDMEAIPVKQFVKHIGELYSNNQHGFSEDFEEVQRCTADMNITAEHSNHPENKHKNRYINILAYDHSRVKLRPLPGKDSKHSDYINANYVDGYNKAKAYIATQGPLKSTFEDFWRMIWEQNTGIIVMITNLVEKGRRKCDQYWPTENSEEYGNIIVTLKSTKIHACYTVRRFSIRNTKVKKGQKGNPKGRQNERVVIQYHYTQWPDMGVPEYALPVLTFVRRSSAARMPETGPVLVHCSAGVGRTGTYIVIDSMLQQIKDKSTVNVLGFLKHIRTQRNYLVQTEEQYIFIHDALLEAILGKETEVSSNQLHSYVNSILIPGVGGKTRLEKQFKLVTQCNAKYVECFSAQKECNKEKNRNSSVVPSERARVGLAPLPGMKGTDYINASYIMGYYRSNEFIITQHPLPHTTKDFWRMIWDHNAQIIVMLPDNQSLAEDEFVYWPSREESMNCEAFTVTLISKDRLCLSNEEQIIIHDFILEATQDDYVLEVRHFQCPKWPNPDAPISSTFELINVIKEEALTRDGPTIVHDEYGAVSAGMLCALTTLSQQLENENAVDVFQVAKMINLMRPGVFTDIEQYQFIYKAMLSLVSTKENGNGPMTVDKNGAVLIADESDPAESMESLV

[6] = target: T5, human PTPRG on the cell surface (U937 …); assay: flow cytometry on whole U937 cells, screen of the 28 clones (Ctrl row = 0); PTPRG is named as the antigen on U937 cells only in the later examples
[7] = target: T6, human PTPRG extracellular domain (ECD) (residues 20~736 of human PTPRG) fused to hFc (human, UniProt P23470 20-736); assay: ELISA, absorbance at 405 nm, one condition per Fab and antigen
T6 construct: Produced in-house by transient transfection of Expi293 cells; also called hPTPRG-ECD-hFc; hPTPRG-ECD; not shown: human Fc (hFc)
T6 sequence: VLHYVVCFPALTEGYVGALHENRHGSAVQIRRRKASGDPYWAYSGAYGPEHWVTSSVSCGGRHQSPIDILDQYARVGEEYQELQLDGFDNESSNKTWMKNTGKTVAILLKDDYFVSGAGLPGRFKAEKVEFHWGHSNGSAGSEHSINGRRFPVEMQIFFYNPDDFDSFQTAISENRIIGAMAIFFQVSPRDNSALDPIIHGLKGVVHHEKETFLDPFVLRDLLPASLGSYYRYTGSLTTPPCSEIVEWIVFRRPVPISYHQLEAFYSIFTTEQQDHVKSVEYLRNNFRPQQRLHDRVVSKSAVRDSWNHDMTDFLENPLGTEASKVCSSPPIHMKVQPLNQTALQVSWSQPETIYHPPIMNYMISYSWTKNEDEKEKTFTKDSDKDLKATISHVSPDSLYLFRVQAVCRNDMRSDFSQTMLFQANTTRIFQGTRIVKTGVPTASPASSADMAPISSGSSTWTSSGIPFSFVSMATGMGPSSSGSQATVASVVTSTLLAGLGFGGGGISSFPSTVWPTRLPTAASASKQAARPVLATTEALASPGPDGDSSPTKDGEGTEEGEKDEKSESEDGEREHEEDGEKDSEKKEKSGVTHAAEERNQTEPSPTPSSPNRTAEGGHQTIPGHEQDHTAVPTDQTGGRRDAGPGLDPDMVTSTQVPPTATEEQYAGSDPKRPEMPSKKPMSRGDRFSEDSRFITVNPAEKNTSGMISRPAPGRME

[8] = target: T7, human Nectin-2 on the cell surface (U937 cells) (human, UniProt Q92692 32-538); assay: flow cytometry on whole U937 cells, screen of the 28 clones (Ctrl row = 0); Nectin-2 is named as the antigen on U937 cells only in the later examples
T7 construct: Endogenous Nectin-2 of U937 cells; also called PVRL2; CD112
T7 sequence: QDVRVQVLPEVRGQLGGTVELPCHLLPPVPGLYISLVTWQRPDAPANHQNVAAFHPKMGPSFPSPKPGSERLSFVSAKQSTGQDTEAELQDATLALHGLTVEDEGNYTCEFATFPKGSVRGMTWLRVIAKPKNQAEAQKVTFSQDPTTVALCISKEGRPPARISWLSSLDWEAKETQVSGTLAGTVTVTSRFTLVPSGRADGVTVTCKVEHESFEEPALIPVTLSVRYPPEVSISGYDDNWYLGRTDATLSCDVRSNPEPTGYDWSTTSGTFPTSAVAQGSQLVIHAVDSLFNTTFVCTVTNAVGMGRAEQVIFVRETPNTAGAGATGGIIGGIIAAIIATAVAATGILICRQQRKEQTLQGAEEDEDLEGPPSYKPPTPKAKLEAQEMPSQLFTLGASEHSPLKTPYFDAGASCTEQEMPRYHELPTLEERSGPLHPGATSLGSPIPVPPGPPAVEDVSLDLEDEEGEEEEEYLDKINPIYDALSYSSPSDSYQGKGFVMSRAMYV

- binding result [1]: no binding
- binding result [7]: no binding
- flow cytometry binding value (the table prints no name or unit) [8]: 87.8
B4: Fab_277 (Fab, V domains shown)
VH: AQSLEESGGRLVTPGTPLTLTCTASGFTLSSYHMSWVRQAPGKGLEWIGIISSGGSIYYASWAKGRFTISRTSTTVDLKMTSPTTEDTATYFCARYAAYSIGMDLWGPGTLVTVSS
VL: QFVLTQPASVQVNLGQMVSLTCTADTLSRSYASWYQQKPGQAPVLLIYRDTSRPSGVPDRFSGSTSGNTATLTISGAQAGDEADYYCATDDNSGSSYQYVFGGGTQLTVTG
notes: Chimeric rabbit/human Fab; also called N277

- binding result [1]: no binding
- binding result [2]: no binding
- binding result [3]: no binding
- flow cytometry binding value (the table prints no name or unit) [5]: -2.13
- flow cytometry binding value (the table prints no name or unit) [6]: 92.9
B5: Fab_11 (Fab, V domains shown)
VH: AQSLEESGGRLVTPGTPLTLTCTVSGFSLSSYAMTWVRQAPGEGLEWIGTIGAGGSPYYASWAKGRFTISKTATTVNLKIISPTTEDTATYFCAREGGGSYYFDLWGPGTLVTVSS
VL: B4 VL with Q1S, M17T, T65S, D90S, N92G, S96T, Y97F, Q98H, Y99F
notes: Chimeric rabbit/human Fab; also called P11; mAb_11

- binding result [1]: no binding
- binding result [7]: no binding
- flow cytometry binding value (the table prints no name or unit) [8]: 92.6
B6: Fab_2430 (Fab, V domains shown)
VH: AQSLEESGGRLVTPGTPLTLTCTVSGIDLSSYHMNWVRQAPGKGLEWIGIIGASAGTYYARWAKGRFTISKTSTTVDLKITSPTTEDTATYFCARSGGSMQLNLWGPGTLVTISS
VL: B4 VL with Q1S, M17T, T65S, N92S
notes: Chimeric rabbit/human Fab; also called N2430

More lines, now with the values behind:

B1: Fab_130 (Fab, V domains shown)
VH: QEQQKESGGGLFKPTDTLTLTCTVSGFSLSSNAISWVRQAPGNGLEWIGAIDNSGSAYYATWAKGRSTITRATNLNTVTLKMTSVTAADTATYFCAREDVRADSIDLNMWGPGTLVTISS
VL: B4 VL with Q1S, M17T, T65S, D90S, N92G, Y99F
notes: Chimeric rabbit/human Fab; also called P130; clone 130
- binding result [1]: no binding
- binding result [2]: no binding
- binding result [3]: no binding
- binding result [4]: binds
- flow cytometry binding value (the table prints no name or unit) [5]: 12.6
- flow cytometry binding value (the table prints no name or unit) [6]: 78.3

B2: Fab_2282 (Fab, V domains shown)
VH: QEQLKESGGRLVTPGTPLTLTCTASGFTISSYHMSWVRQAPGKGLEWIGVISASGGSTYYASWAKGRFTISKTSTTVDLKITSPTTEDTATYFCARESYGGYNLWGPGTLVTVSS
VL: B4 VL with Q1S
notes: Chimeric rabbit/human Fab; also called N2282; mAb_2282
- binding result [1]: no binding
- binding result [7]: no binding
- flow cytometry binding value (the table prints no name or unit) [8]: 92.2

B3: Fab_1955 (Fab, V domains shown)
VH: AQSLEESGGRLVTPGTPLTLTCTASGFSLYSYDMSWVRQAPGKGLEWIGLIDGGGNTYYASWAKGRFTISKTSSTTVDLKMTSLTTEDTATYFCARELWPAYSSGAFNIWGPGTLVTISS
VL: B4 VL with Q1S, M17T, S30R, S52R, T65S, A88V, D90T, N92G, Q98L, Y99V
notes: Chimeric rabbit/human Fab; also called P1955; clone 1955
- binding result [1]: no binding
- binding result [2]: no binding
- binding result [3]: no binding
- binding result [4]: binds
- flow cytometry binding value (the table prints no name or unit) [5]: 12.9
- flow cytometry binding value (the table prints no name or unit) [6]: 91.3
